Assay results from paper PMC1326249.

Molecular target: U1A N-terminal RRM wild type (human, UniProt P09012 2-98)
Test: SPR

Sequence of U1A N-terminal RRM wild type (P09012 2-98): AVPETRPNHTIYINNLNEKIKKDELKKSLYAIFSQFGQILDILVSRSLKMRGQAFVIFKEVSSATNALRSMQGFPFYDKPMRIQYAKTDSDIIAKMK

## AGCUUAUCCAUUGCACUCCGGAUAAGCU (structured_RNA) [U1hpII]
  Kd: 0.07 nM
